Marks after values point to notes of the source that are not given here.

Results on two molecules are retold here after article PMC6123711, “Conformational signatures in β-arrestin2 reveal natural biased agonism at a G-protein-coupled receptor” (Communications Biology, 2018).

The subject of assay [1] is β-arrestin1–Galr2 interaction (Galr2). In words: β-Arrestin1 recruitment using NanoBit technology. Type of assay: cell-based, human. As to conditions: for Log(τ/KA), β-Arrestin1: HEK293 cells, luminescence at 5 min after agonist, operational model (Eq. 2); for Log(τ/KA), β-Arrestin1 / ΔLog(τ/KA), β-Arrestin1: mean ± s.e.m. of three experiments in triplicate; for ΔLog(τ/KA), β-Arrestin1: normalized to Galanin (reference agonist), in parenthesis. The source says: The β-arrestin recruitment assays were developed based on a structural complementation assay using NanoBit technology. Briefly, NanoBit technology is a system that basically consists of Nano luciferase (Nluc), which is a small protein that catalyzes a bright luminescent reaction. To create a complementation system, Nluc was separated into two subunits that individually produce very little enzymatic activity. […] Because of this low affinity for each other, these two fragments can bind when they are in close proximity. The interaction between the LgBit and the SmBit can be driven by the interactions of the fusion partners, allowing them to study protein–protein interaction in live cells. As the interaction is reversible, the association and dissociation can be monitored. There is no lag time in the loss of luminescence, and so the immediate detection allows for accurate assessment of temporal dynamics. […] To accurately monitor β-arrestin recruitment, four plasmid combinations between LgBit and SmBit with the fusion partners Galr2 and β-arrestins were screened. The plasmid combination with the highest luminescence signal was chosen for further studies (Fig. 2a, Supplementary Fig. 1). Using data points at 5 min after ligand stimulation, we obtained dose–response curves that corresponded to β-arrestin1/2 recruitment (Fig. 2d, e, Supplementary Fig. 2).
Fig. 2 The effect of different endogenous ligands in β-arrestin1/2 recruitment. a Schematic representation of the structural complementation assay used to monitor β-arrestin1/2–Galr2 interactions. Kinetic traces of β-arrestin1 (b) and β-arrestin2 (c) recruitment after Galr2 activation with 1 μM of three different agonists. Dose–response curves for recruitment of β-arrestin1 (d), and β-arrestin2 (e). Luminescence signal intensity obtained at 5 min after agonist stimulation was measured. […] The results are expressed as mean ± s.e.m. of three experiments performed in triplicate; each triplicate was averaged before calculating the s.e.m. The arrows indicate the time at which the cells were treated with the different ligands
(§1) Quantification of bias between each pathway was performed using Galanin as a reference ligand. All incubations for the different signaling assays were performed in serum-free medium to prevent peptide degradation.
HEK293 cells were obtained from the American Type Culture Collection (ATCC, CRL-1573; Manassas, VA, USA). They were maintained in Dulbecco’s modified Eagle’s medium (DMEM) supplemented with 10% fetal bovine serum (FBS), 100 U/ml penicillin G, and 100 μg/ml streptomycin (Invitrogen; Carlsbad, CA, USA). During the experiments, the cells were tested for mycoplasma using a Universal Mycoplasma Detection Kit (ATCC). At 1 day before transfection, the cells were seeded in 96-well plates at a density of 2.5 × 10^4 cells per well. A mixture containing 50 ng β-arrestin construct containing the LgBit or SmBit and 50 ng Galr2 containing one of the two domains of Nluc and 0.2 μl Lipofectamine 2000 (Invitrogen) was prepared and added to each well. We tested four β-arrestin-Galr2 spatial orientations. […] After a 10-min incubation, 25 μl substrate (furimazine) was added and once every minute subsequent luminescence measurements were taken for 10 min for signal stabilization. A total of 10 μl ligand was then added to each well and luminescence measurements were recorded immediately and once every minute for 1 h (Synergy 2 Multi-Mode Microplate Reader BioTek, Winooski, VT, USA).
(In general: Arrestin recruitment assays detect the binding of arrestin to an activated receptor.)

A further assay has as its system Galr2. In words: Quantification of biased agonism between two pathways (operational model). The settings on record: for ΔΔLog(τ/KA) (bias factor), Gαq-dependent-pErk1/2/β-arrestin1: Gαq-dependent-pErk1/2 vs β-arrestin1; for ΔΔLog(τ/KA) (bias factor), SRE-Luc/clathrin:β-arrestin2: SRE-Luc vs clathrin:β-arrestin2; for ΔΔLog(τ/KA) (bias factor), SRE-Luc/β-arrestin1: SRE-Luc vs β-arrestin1; for ΔΔLog(τ/KA) (bias factor), SRE-Luc/β-arrestin2: SRE-Luc vs β-arrestin2; for ΔΔLog(τ/KA) (bias factor), Total inositol phosphate/clathrin:β-arrestin2: total inositol phosphate vs clathrin:β-arrestin2; for ΔΔLog(τ/KA) (bias factor), Total inositol phosphate/β-arrestin1: total inositol phosphate vs β-arrestin1; for ΔΔLog(τ/KA) (bias factor), Total inositol phosphate/β-arrestin2: total inositol phosphate vs β-arrestin2; for ΔΔLog(τ/KA) (bias factor), β-Arrestin-dependent-pErk1/2/β-arrestin2: β-arrestin-dependent-pErk1/2 vs β-arrestin2. The format is cell-based, human. As for the experimental part:
To determine whether differential signaling at Galr2 (Figs. 2 and 5) may be translated into biased agonism, we used the operational model of agonism (Eq. 2) to calculate the logarithm of the transduction coefficient (log(τ/KA)) for each agonist at each pathway (Table 1)[4]. We used Galanin as a reference ligand during all experiments. […] We also calculated bias factors for G-protein-dependent pErk1/2 and β-arrestins.
as §1
To calculate biased factors and compare agonist profiles, the dose–response data were fit to the following form of the operational model of agonism:[42]2 Y=Basal+Em-basalτ/KA^n[A]^n/[A]^nτ/KA^n+1+[A]/KA^n where Em is the maximal possible response of the system, Basal is the basal level of response, KA represents the equilibrium dissociation constant of the agonist (A), and τ is an index of the signaling efficacy of the agonist that is defined as RT/KE. RT is the total number of receptors, KE is the coupling efficiency of each agonist-occupied receptor, and n is the slope of the transducer function that links occupancy to response. One assumption of the analysis is that the transduction machinery used for a given cellular pathway are the same for all agonists, such that the Em and transducer slope (n) are shared between agonists. The data for all compounds for each pathway were fit globally, to determine values of KA and τ. Biased agonism was quantified as previously described. […] The relative bias can then be calculated for each agonist at the two different signaling pathways by subtracting the Δlog(τ/KA) of one pathway from the other to give a ΔΔlog(τ/KA) value, which is a measure of bias. […] All transduction ratios (log(τ/KA)) parameters were estimated as logarithms. All results were expressed as mean ± s.e.m. values. We performed a Brown–Forsythe test (Graph Pad Prism 7.0) to assure ourselves of equal variances between the compared parameters.

Setting [2] is: reference agonist Galanin, mean ± s.e.m. of three experiments in triplicate.

For Galanin [reference compound], in assay [1], the “Log(τ/KA), β-Arrestin1” value is given as 7.18 ± 0.01 and the “ΔLog(τ/KA), β-Arrestin1” value is recorded as 0.00 ± 0.01. In addition, in the assay with Galr2 (G-protein and β-arrestin1/2), the “overall signaling at Galr2” value is “robust signaling toward G-protein and β-arrestin1/2”. Also, in the assay with Galr2 (setting [2]), the “ΔΔLog(τ/KA) (bias factor), Gαq-dependent-pErk1/2/β-arrestin1” value came out at 0.00 ± 0.22; the “ΔΔLog(τ/KA) (bias factor), SRE-Luc/clathrin:β-arrestin2” value is 0.00 ± 0.17; the “ΔΔLog(τ/KA) (bias factor), SRE-Luc/β-arrestin1” value was 0.00 ± 0.002; the “ΔΔLog(τ/KA) (bias factor), SRE-Luc/β-arrestin2” value was 0.00 ± 0.02. Besides, in the assay with Galr2 (setting [2]), the “ΔΔLog(τ/KA) (bias factor), Total inositol phosphate/clathrin:β-arrestin2” value was determined as 0.00 ± 0.19; the “ΔΔLog(τ/KA) (bias factor), Total inositol phosphate/β-arrestin1” value was 0.00 ± 0.03; the “ΔΔLog(τ/KA) (bias factor), Total inositol phosphate/β-arrestin2” value is reported as 0.00 ± 0.05; the “ΔΔLog(τ/KA) (bias factor), β-Arrestin-dependent-pErk1/2/β-arrestin2” value is recorded as 0.00 ± 0.38. Moreover, the “ΔΔLog(τ/KA) (bias factor), Gαq-dependent-pErk1/2/β-arrestin2” value with Galr2 (Gαq-dependent-pErk1/2 vs β-arrestin2, reference agonist Galanin, mean ± s.e.m. of three experiments in triplicate) stood at 0.00 ± 0.04.

B1: Spexin (peptide, UniProt Q9BT56 27-116, looked up)
Spexin: APQRLLERRNWTPQAMLYLKGAQGRRFISDQSRRKDLSDRPLPERRSPNPQLLTIPEAATILLASLQKSPEDEEKNFDQTRFLEDSLLNW
modifications: Spexin
notes: endogenous peptide ligand of Galr2 and Galr3; synthesized by AnyGen
For the molecule B1, in assay [1], the “Log(τ/KA), β-Arrestin1” value is 6.60 ± 0.08 and the “ΔLog(τ/KA), β-Arrestin1” value was −0.60 ± 0.01. Further, the “agonism in β-arrestin1 recruitment” value in assay [1] (dose–response, data at 5 min after ligand stimulation, compared with Galanin) is given as “partial agonists”. Further, in the assay with Galr2 (Gαq-dependent pErk1/2 vs the two β-arrestin isoforms, relative to Galanin), the “biased agonism, pErk1/2 vs β-arrestin isoforms” value is on record as “biased signaling toward Gαq-dependent pErk1/2 over the two β-arrestin isoforms”. In the assay on Galr2 (setting [2]), the “ΔΔLog(τ/KA) (bias factor), Gαq-dependent-pErk1/2/β-arrestin1” value is on record as 1.10 ± 0.29^b; the “ΔΔLog(τ/KA) (bias factor), SRE-Luc/clathrin:β-arrestin2” value is 1.88 ± 0.07^b; the “ΔΔLog(τ/KA) (bias factor), SRE-Luc/β-arrestin1” value is given as 0.63 ± 0.06^b; the “ΔΔLog(τ/KA) (bias factor), SRE-Luc/β-arrestin2” value was 0.77 ± 0.02^b. Moreover, in the assay with Galr2 (setting [2]), the “ΔΔLog(τ/KA) (bias factor), Total inositol phosphate/clathrin:β-arrestin2” value is 1.84 ± 0.12^b; the “ΔΔLog(τ/KA) (bias factor), Total inositol phosphate/β-arrestin1” value is reported as 0.60 ± 0.09^b; the “ΔΔLog(τ/KA) (bias factor), Total inositol phosphate/β-arrestin2” value is given as 0.73 ± 0.09^b; the “ΔΔLog(τ/KA) (bias factor), β-Arrestin-dependent-pErk1/2/β-arrestin2” value is 1.40 ± 0.16^a. Further, in the assay with Galr2 (relative to Galanin), the “biased agonism, β-arrestin-dependent pErk1/2 vs β-arrestin2 recruitment” value is on record as “biased agonism was also detected toward β-arrestin-dependent pErk1/2 over β-arrestin2 recruitment”. In addition, in the assay on Galr2 (relative to Galanin, Gαq-protein-dependent signaling vs β-arrestins and β-arrestin2–clathrin), the biased agonism entry was “biased agonism toward Gαq-protein-dependent signaling over β-arrestins and β-arrestin2–clathrin interactions”.
